Entries after “also recorded” stand apart in the source; their conditions may differ.
How the values were obtained:
C57BL/6 mice = experiment: LPS-induced endotoxic shock model with recombinant hRetn treatment; assay type: in vivo, mouse; settings: for survival after LPS injection: 0.5 μg hRetn i.p. prior to LPS, vs PBS control
Source text: Mice. Human resistin transgenic mice were generated on a mouse Retn−/− background as previously described in Park et al., 2011, “Inflammatory induction of human resistin causes insulin resistance in endotoxemic mice,” Diabetes 60(3):775-783, the entire content of which is herein incorporated by reference. Briefly, the human resistin gene, along with 21,300 bp upstream and 4,248 bp downstream of the human resistin start site were inserted through a bacterial artificial chromosome (BAC). Genome insertion of hRETN in the two transgenic mouse lines was determined by Dartmouse™, which sequences and analyzes thousands of SNPs throughout the mouse genome. For the endotoxic shock model, mice were injected i.p. with two doses of LPS (Sigma): 0.05 mg/kg LPS followed by 12 mg/kg LPS (females) or 20 mg/kg LPS (males) 12 hours later. Mice were monitored at least twice a day and euthanized according to humane endpoints. For treatment with recombinant resistin, C57BL/6 mice were injected i.p. with PBS or 0.5 μg hRetn (Peprotech). Nippostrongylus brasiliensis life cycle was maintained in Sprague-Dawley rats, as previously described in Jang et al., 2015, “Macrophage-derived human resistin is induced in multiple helminth infections and promotes inflammatory monocytes and increased parasite burden,” PLoS Pathog 11(1):e1004579, the entire content of which is herein incorporated by reference. Mice were anesthetized with isoflurane and injected subcutaneously with 500 L3 larvae. Serum collection was by retro-orbital bleeding and body temperature was measured by rectal thermometer (Braintree Scientific). All animals in the experiment were age-matched (6-8 week old), gender-matched and housed in a specific pathogen free facility.
Vascular Permeability Assay. Evan's blue dye was used to measure vascular permeability. Mice were anesthetized by isoflurane and 200 μL of 0.5% Evan's Blue dye in PBS was injected reto-orbitally. After 10 minutes, mice were euthanized by CO2 and perfused with 20 mL PBS. Tissue was excised, weighed and incubated with 500 μL N, N-dimethylformamide (Sigma) for 24 hours at 55° C. Extracted Evan's blue was measured at 610 nm according to a standard curve.
(§1) Binding Assay and Flow Cytometry. Single cell suspension of lung tissue was prepared and hRetn binding was measured as previously described in Jang et al., 2015, supra. Briefly, dissociated lung cells were incubated for 1 hour at 4° C. with 0.5 μg recombinant hResistin (Peprotech) or PBS, followed by 2× wash in FACS buffer, incubation with Fc block (5 μg/mL αCD16/32 and 10 μg/mL purified rat IgG1, 5 min at 4° C.). Cells were stained with biotinylated α-hRetn (Peprotech, 30 min at 4° C.) followed by detection with BV605-conjugated streptavidin (BD) and surface marker antibodies. To collect peritoneal exudate cells (PECs), the peritoneal cavity was washed and PECs recovered in 5 mL ice cold PBS. Surface marker antibodies were: F4/80 (clone A3-1), SiglecF (clone E50-2440), CD4 (clone RM4-5), Ly6C (HK1.4), CD11b (clone M1/70), CD11c (clone N418), Ly6G (clone 1A8), MHCII (clone M5/114.15.2) and CD3e (clone 145-2C11), CD115 (clone AFS98), purchased from Affymetrix, BD Biosciences or Biolegend. Cell populations were determined as follows: peritoneal macrophage (F4/80+CD11b+), neutrophils (Ly6G+CD11b+), eosinophils (SiglecF+CD11c−) and monocyte (Ly6C+CD11b+), alveolar macrophages (F4/80+CD11c+). For flow cytometric analysis, all samples were run on the BD LSRII and analyzed on FlowJo (v10).
Cytokine Quantification. Sandwich ELISAs were performed using capture and biotinylated antibodies for human resistin (Peprotech), IL-10 and TNFα (BD Biosciences) according to manufacturer's instructions. Detection was performed with streptavidin-peroxidase (Jackson ImmunoResearch) and TMB peroxidase substrate (BD Biosciences), followed by addition of 2N H2SO4. Optical density (OD) was captured at 450 nm. Samples were compared to serial-fold dilution of recombinant protein. […]

TLR4 [1] = biological target: T1, TLR4 (Mus musculus, UniProt Q9QUK6); experiment: hRetn cellular binding assay on dissociated lung cells from Nb-infected Tlr4+/+ or Tlr4−/− mice; assay type: cell-based; settings: Ly6C+CD11b+ lung cells, Nb-infected mice
T1 construct: from tissue; host or cells: dissociated lung cells (monocytes, alveolar macrophages, neutrophils) of day 7 Nb-infected mice
T1 sequence (Q9QUK6 26-835): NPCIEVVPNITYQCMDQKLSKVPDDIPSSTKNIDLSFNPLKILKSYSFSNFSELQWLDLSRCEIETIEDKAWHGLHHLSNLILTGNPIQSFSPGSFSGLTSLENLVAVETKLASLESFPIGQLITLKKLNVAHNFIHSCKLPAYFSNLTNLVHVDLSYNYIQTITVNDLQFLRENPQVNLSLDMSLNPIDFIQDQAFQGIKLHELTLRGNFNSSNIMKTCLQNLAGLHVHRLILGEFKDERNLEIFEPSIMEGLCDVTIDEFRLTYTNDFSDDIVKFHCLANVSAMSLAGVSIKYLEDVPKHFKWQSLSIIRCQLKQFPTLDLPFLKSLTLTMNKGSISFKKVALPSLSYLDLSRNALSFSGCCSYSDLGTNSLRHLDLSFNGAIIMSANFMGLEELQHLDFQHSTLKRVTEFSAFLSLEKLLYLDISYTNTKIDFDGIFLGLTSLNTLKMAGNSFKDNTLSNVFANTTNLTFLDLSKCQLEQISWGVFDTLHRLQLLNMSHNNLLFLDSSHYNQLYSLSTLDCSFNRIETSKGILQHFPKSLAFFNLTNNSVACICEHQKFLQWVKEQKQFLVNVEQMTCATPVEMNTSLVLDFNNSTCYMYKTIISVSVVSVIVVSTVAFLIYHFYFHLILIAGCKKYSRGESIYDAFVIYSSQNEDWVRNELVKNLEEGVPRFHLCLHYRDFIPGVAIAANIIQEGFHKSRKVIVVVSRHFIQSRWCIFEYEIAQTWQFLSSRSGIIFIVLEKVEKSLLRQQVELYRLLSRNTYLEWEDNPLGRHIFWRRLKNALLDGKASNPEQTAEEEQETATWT
Method: as §1

TLR4 [2] = experiment: as above; assay type: cell-based, mouse
Method: as §1

[3] = peritoneal exudate cells, flow cytometry

B1: hRetn: human resistin protein (hRetn) having an amino acid sequence of SEQ ID NO: 1; recombinant, E. coli-derived or 293T cell-derived (protein, listed as Homo sapiens)
chain: MKALCLLLLPVLGLLVSSKTLCSMEEAINERIQEVAGSLIFRAISSIGLECQSVTSRGDLATCPRGFAVTGCTCGSACGSWDVRAETTCHCQCAGMDWTGARCCRVQP
survival after LPS injection (C57BL/6 mice; listed as recombinant hRetn): protected C57BL/6 mice against LPS-induced mortality; also recorded: resistant to LPS-induced mortality
survival after LPS injection (C57BL/6 mice; listed as recombinant hRetn protein): protected against an otherwise lethal dose of LPS
IFNγ level (C57BL/6 mice; 6 hours after LPS): significant reduction
IL-6 level (C57BL/6 mice; 6 hours after LPS): significant reduction
IL-10 expression (C57BL/6 mice; 6 hours after LPS): no change
TNFα level (C57BL/6 mice; 6 hours after LPS): significant reduction
lung vascular permeability (Evan's blue dye) (C57BL/6 mice; 6 hours after LPS): significantly reduced LPS-induced vascular permeability
rectal body temperature (LPS-induced temperature drop) (C57BL/6 mice; 6 hours after LPS): modest protection from the LPS-induced temperature drop
LPS-induced neutrophils in the peritoneal cavity (C57BL/6 mice; [3]): significantly reduced LPS-induced neutrophils in the peritoneal cavity
monocytes in the peritoneal cavity (C57BL/6 mice; [3]): increased monocytes
hRetn binding to Tlr4+/+ monocytes (TLR4 [1]): able to bind hRetn
hRetn binding to alveolar macrophages (TLR4 [2]; F4/80+CD11c+ lung cells, Tlr4+/+ vs Tlr4−/−): TLR4-dependent binding
hRetn binding to Tlr4−/− monocytes (TLR4 [2]; Ly6C+CD11b+ lung cells, Nb-infected mice): significantly abrogated
hRetn binding to neutrophils in the absence of TLR4 (TLR4 [2]; Ly6G+CD11b+ lung cells, Tlr4−/−): not noticeably affected
frequency of hRetn-bound cells in monocytes (TLR4 [2]; lung cells, Nb-infected mice): 15%
frequency of hRetn-bound cells in neutrophils (TLR4 [2]; lung cells, Nb-infected mice): 8%
